Source: patent publication US20190194319A1 (AbbVie / Abbott, published 2019)
Positions count from the first letter of the chain named.

B1: SC72.91 (antibody, V domains shown)
VH: QVQLQQSGPEVVKPGASVKLSCKASGYTFTTYDINWVKQRPGQGLEWIGWIYFRDGTNKYNEKFKGKATLTVDTSSSTAYMELHSLTSEDSAVYFCASVYDGYYVSGFDIMDYWGQGTSVTVSS
VL: DVVLTQTPLSLPVSLGDQASIYCRSSQSIVHSNGNTYFEWYLQKPGQSPKLLIYKVSNRLSGVPDRFSGSGSGTDFTLKISRVEAVDLGIYYCFQASHVPFTFGAGTKLELK
notes: Murine monoclonal antibody from a hybridoma; light chain amplified with kappa primers
B2: SC72.28 (antibody, V domains shown)
VH: DVQLQQSGAELVRPGALVKLSCKASGFNIKDYLIHWVKQRPEQGLEWIGCIDPENGNTIYDPRFQGKAKITSDTSSTTAYLRLTSLTSEDTAVYYCGRGGLDYWGQGTTLTVSS
VL: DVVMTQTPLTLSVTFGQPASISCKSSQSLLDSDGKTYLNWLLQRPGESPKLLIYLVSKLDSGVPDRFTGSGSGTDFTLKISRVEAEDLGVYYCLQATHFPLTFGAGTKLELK
notes: as for B1
B3: SC72.94 (antibody, V domains shown)
VH: QVQLQQPGTELVKPGASVKLSCKASAYTFTSLWIHWVKQRPGQGLEWIGDINPSIGDTYYNERFKSKATLTVDKSSSTAYMQLSSLTSEDSAVYYCTTGDSWGQGTTLTVSS
VL: DIQMNQSPSSLSASLGDTITITCRASQGISIWLSWYQQKPGNIPKLLIYKASNLHTGVPPSFSGSGSGTDFTLTISSLQPEDIATYYCLQSQSYPWTFGGGTKLEIK
notes: as for B1
B4: SC72.201 (antibody, V domains shown)
VH: EVNLEESGGGLVQPGGSMKLSCVASGFTFSNYWMNWVRQSPEKGLEWVAQIRSKSDNYATHYAESVKGRFTISRDDSKSSVYLQMNNLRSEDTGIYYCRTGPDVWGTGTTVTVSS
VL: DIQMTQSPASLSVSVGETVTITCRASENIYSSLAWYQQKQGNSPQLLVYAATKLADGVPSRFSGSGSGTQYSLKINSLQSEDFGSYYCQHFWGTTWTFGGGTKLEIK
notes: Murine monoclonal antibody from a hybridoma of the second immunization campaign; light chain amplified with kappa primers
B5: SC72.52 (antibody, V domains shown)
VH: QVQLQQPGSVLVRPGASVKLSCKASGYTFTSYWMHWVKQRPGQGLEWIGEIYPNSGRTNYNEKFKGKATLTVDTSSSTAYVDLSSLTSEDSAVYYCHYYDDNYGYWGQGTTLTVSS
VL: DIVITQDELSNPVTSGESVSISCRSSKSLLYKDGKTYLNWFLQRPGQSPQLLIYLMSTRASGVSDRFSGSGSGTDFTLEISRVKAEDVGVYYCQQFVEYPLTFGAGTKLELK
notes: as for B1
B6: SC72.93 (antibody, V domains shown)
VH: QVQLQQSGAELVRPGASVTLSCKASGYIFIDYEMHWVKQTPVHGLEWIGSIDPETGDTVYNQKFKGKATLTADKSSSTAYMELRSLTSEDSAVYYCSRGGLDYWGQGTTLTVSS
VL: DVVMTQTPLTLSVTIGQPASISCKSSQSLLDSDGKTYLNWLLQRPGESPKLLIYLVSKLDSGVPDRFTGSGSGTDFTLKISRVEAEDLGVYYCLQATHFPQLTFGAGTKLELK
notes: Murine monoclonal antibody from a hybridoma; same VL as SC72.2; light chain amplified with kappa primers
B7: SC72.63 (antibody, V domains shown)
VH: EVQLLQSGPELVKPGASVKMSCKASGYTLTDYNLHWVKQSHAKSLEWIGYINPYNGVTSYNQRFKGKATLTVNKSSSTAFMEFRSLTSEDSAVYYCVSLYYGDDPFACWGQGTLVTVST
VL: DIQMTQSPASLSASVGETVTMTCRASENIYSNLAWYQQKQGKSPQLLVYAATNLADDVPSRFSGSGSGTQFSLKINSLQPEDFGIYYCHHFYGSPLTFGAGTKLELK
notes: as for B1
B8: SC72.216 (antibody, V domains shown)
VH: QIQLVQSGPELRKPGETVKISCKASGYTFTNYPMHWVKQAPGKGFKWMGWINTYSGVPSYADDFKGRFAFSLETSASSAYLQINNLKNEDMATYFCARHNYNSYDVFAYWGQGTLVTVSA
VL: DIVVTQSPASLAVSLGQRATISCKASQSVDYDGDSYMNWYQQKPGQPPKLLIYGASNLESGIPARFSGSGSGTDFTLNIHPVEEEDAATYYCQQSNEDPYTFGGGTKLEIK
notes: as for B4
B9: SC72.181 (antibody, V domains shown)
VH: QVQLQQPGAEVVKPGASVRLSCKASGYTFTSYWINWVKQRPGQGLEWIGNIYPGSSSTNYNEKFKSKATLTVDTSSSTAYMQLSSLTSDDSAVYYCSRSESDYWGQGTTLTVSS
VL: B8 VL with V4L, Y31D, D34G, S35T, N38S, A55V, S56F, N57I
notes: as for B1
B10: SC72.165 (antibody, V domains shown)
VH: B9 VH with V11L, K13R, T28S, S57N, S66R, S97A
VL: B8 VL with V4L, L15P, D30G, S35T, M37L, N38S, A55V, N57I, N96S
notes: as for B1
B11: SC72.76 (antibody, V domains shown)
VH: QVQLKESGPGLVAPSQSLSITCTVSDFSLTNYAVHWVRQSPGKGLEWLGVIWSDGNTDYNAPFISRLSISKDNSKSQVFFKMNSLQADDTAIYYCASYGDSAYWGQGTLVTVSA
VL: DIVLTQSPASLTVSLGQRATISCRASQSVRTSNYSYMHWYQQKPGQPPKLLIKYASNLESGVPARFSGSGSGTDFTLNIHPVEEEDTATYYCQHHWEIPFTFGGGTKLEIK
notes: as for B1
B12: SC72.96 (antibody, V domains shown)
VH: EVQLQQSGPELVKPGASVKMSCKASGYTLTAYNIHWVKQSHGKSLEWIGFINPHSGGTTYNEKFKGKATLTVNKSSSTANMELRSLTSEDSAVYYCASIYYYGSSYFDHWGQGTTLTVSS
VL: DIQMTQSPASLSASVGETVTMTCRASENIHSNLVWYQQKQGKSPQLLVYAATNLADGVPSRFSGSGSGSQFSLKIDSLQPEDFGSYLCQHFYGTPRTFGGGTKLEIK
notes: as for B1
B13: SC72.132 (antibody, V domains shown)
VH: EVKLVESEGGLVQPGSSMKLSCTASGFTFSDYYMAWVRQVPEKGLEWVATIDYDGSNTYYLDSLKSRFIISRDNAKNILYLQMSSLKSEDTATYYCARDGGYDEDYFDYWGQGTTLTVSS
VL: DIVMSQSPSSLAVSVGEKVTLSCKSSQTLLYSSNQQNYLAWYQQKPGQSPKLLIYWASTRESGVPDRFTGSGSGTDFTLTISSVKAEDLAVYYCHQYYTYPFTFGSGTKLEIK
notes: as for B1

What was measured:
[1] = molecular target: T1, human ASCL1 (Achaete-scute homolog 1) (human, UniProt P50553 1-236); assay: screening of Example 2 (ELISA) or cells
T1 construct: also called hASCL1; immobilized human ASCL1
T1 sequence: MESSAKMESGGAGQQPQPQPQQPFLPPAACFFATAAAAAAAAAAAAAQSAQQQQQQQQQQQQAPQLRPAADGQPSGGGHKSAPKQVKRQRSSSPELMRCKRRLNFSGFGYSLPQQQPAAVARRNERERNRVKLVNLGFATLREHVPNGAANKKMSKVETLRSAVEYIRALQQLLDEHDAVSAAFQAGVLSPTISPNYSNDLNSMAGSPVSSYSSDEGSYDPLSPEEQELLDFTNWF

[2] = molecular target: T1, human ASCL1 (Achaete-scute homolog 1); assay: ELISA with purified antibody: staining against hASCL1 divided by staining against an irrelevant protein (form of the coated hASCL1 not stated in paragraph 180; the screen it confirms used hASCL1-GST)
Experimental: A second immunization campaign was conducted similar to the first with the following modifications: 1) 299×10⁶ cells) were fused with non-secreting SP2/0-Ag14 myeloma cells (ATCC #CRL-1581) at a ratio of 1:1 by electro cell fusion using a model BTX Hybrimmune System (BTX Harvard Apparatus). On day 6, after the fusion, the hybridoma cells were not frozen and were sorted on that day. After the 10 day culture, 6×384 clones were screened by ELISA selecting for antibodies positive to hASCL1-GST (glutathione S-transferase) and counter screened against an irrelevant protein tagged with GST. As part of this, ALK phosphatase-labeled goat anti-mouse IgG diluted 1:5000 in PBSA was used instead of HRP-labeled goat anti-mouse IgG diluted 1:10:000. ELISA samples were analyzed at OD405 instead of OD450.
To confirm the results of the ELISA soup screen a similar ELISA was run on purified antibodies from selected clones. The ELISA positive ratio, (defined as ELISA staining against hASCL1 divided by the ELISA staining against an irrelevant protein) was then determined and set forth in FIG. 3 in the column labeled “ELISA positive ratio”.

[3] = molecular target: T2, hASCL1 expressed in HEK-293T cells (pLMEGPA-hASCL1-NFlag) (human, UniProt P50553 1-236); assay: intracellular flow cytometry (gMFI) on permeabilised HEK293T cells transduced with hASCL1, control cells transduced with GFP only; antibody 10 ug/ml
T2 construct: also called HEK293T cells transiently transduced with hASCL1; ASCL1 engineered cells
T2 sequence: T1 sequence
Experimental: 1×10⁵ per well of HEK293T cells transiently transduced with hASCL1(as described in Example 1), and HEK293T cells transiently transduced with GFP only were washed with cold PBS and then incubated with a solution of PBS and a Dylight 450 Fixable viability dye for 30 minutes. After incubation, the cells were washed twice with PBS. To permeate the cell walls 100 ul of BD Cytofix/Cytoperm was added to the cells and left to incubate for 20 minutes on ice. Cells were then washed with BD Phosflow perm/wash solution. Purified antibody at a final concentration of 10 ug/ml was then added to the cells in 45 ul of BD Phosflow perm/wash solution, incubated on ice for 30 minutes, and then washed with BD Phosflow perm/wash 2 times. 50 ul of Alexa Fluor 647 conjugated Goat-anti-mouse IgG secondary antibody, was added at 1 ug/ml dissolved in BD Phosflow perm/wash and incubated on ice for 30 minutes, then washed with BD Phosflow perm/wash 3 times. The cells were then resuspended in FACS buffer to be read on BD FACS Canto according to the manufacturer's instructions.
The FlowJo software package (FlowJo LLC) was used to calculate gMFI (geometric Mean Fluorescence Intensity) for each of the anti-ASCL1 antibodies.

| Binder | binding result [1] | ELISA positive ratio [2] | IC ratio [3] |
| --- | --- | --- | --- |
| B1 | binds |  |  |
| B2 | binds |  |  |
| B3 | binds |  |  |
| B4 |  | 11.7 | 0.67 |
| B5 | binds |  |  |
| B6 | binds |  |  |
| B7 | binds |  |  |
| B8 |  | 13 | 1.86 |
| B9 | binds |  |  |
| B10 |  | 14.2 | 3.69 |
| B11 | binds |  |  |
| B12 | binds |  |  |
| B13 | binds |  |  |
